pKd: −log10 of the molar value.

In the assay the target is recombinant human PKA catalytic subunit Cα2 (human) (UniProt P17612). The experiment in a line: SPR; C subunits amine-coupled to CM5 chip (about 300 RU), R subunits injected at 30 μl/min; 25°C; 20 mM MOPS pH 7, 150 mM NaCl, 1 mM ATP, 5 mM MgCl2, 50 μM EDTA, 0.005% P20; Langmuir 1:1 model; Biacore 2000 or 3000. For orientation: Surface plasmon resonance follows binding to a sensor surface in real time, without labels.

In the case of “recombinant human PKA regulatory subunit RIIβ (from UniProt P31323 1-418) (natural protein; other documents disagree on this pair)”, the pKd (in general, the negative decadic logarithm of the Kd, by convention in mol/L) was 9.05 and the kon (in general, the second-order rate constant of association) came to 900000 M⁻¹ s⁻¹.

Values taken from paper PMC3163529.
